By Km is commonly meant the substrate concentration at which the rate is half of its maximum.

In data set [1] the target is T1, PfNMNAT (Plasmodium falciparum, UniProt Q8IE38).
T1 construct: gene PF3D7_1327600
T1 sequence (Q8IE38 1-204): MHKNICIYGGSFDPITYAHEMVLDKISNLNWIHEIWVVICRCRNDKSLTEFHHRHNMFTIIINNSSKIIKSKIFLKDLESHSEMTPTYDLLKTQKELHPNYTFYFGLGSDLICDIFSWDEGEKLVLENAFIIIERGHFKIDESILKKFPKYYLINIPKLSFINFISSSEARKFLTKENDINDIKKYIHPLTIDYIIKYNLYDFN
Description: pyrophosphate release assay, […] nm, […] min preincubation with inhibitor. Particulars: 50 µM 1a-a versus 2% DMSO control. The format is biochemical.

Substrate in data set [2]: Nc1ncnc2c1ncn2[C@@H]1O[C@H](COP(=O)(O)OP(=O)(O)OP(=O)(O)O)[C@@H](O)[C@H]1O
Description: purified protein. Conditions: 500 µM NaMN, 100 mM HEPES, 10 mM MgCl2, pH 7.5, apparent Km. Format: biochemical, Plasmodium falciparum.

Substrate in data set [3]: O=C([O-])c1ccc[n+]([C@@H]2O[C@H](COP(=O)(O)O)[C@@H](O)[C@H]2O)c1
Description: purified protein. The format is biochemical, Plasmodium falciparum. Conditions: 500 µM ATP, 100 mM HEPES, 10 mM MgCl2, pH 7.5, apparent Km.

`O=C(CCC(=O)Nc1ccc(Br)cc1)N/N=C/c1c2ccccc2cc2ccccc12` [1a-a]: the “inhibition at 50 μM” value in data set [1] is 1a-a exhibits specific activity against purified his-PfNMNAT (Figure 4A).

B1: PfNMNAT (Plasmodium falciparum 3D7) (protein)
chain: MHKNICIYGGSFDPITYAHEMVLDKISNLNWIHEIWVVICRCRNDKSLTEFHHRHNMFTIIINNSSKIIKSKIFLKDLESHSEMTPTYDLLKTQKELHPNYTFYFGLGSDLICDIFSWDEGEKLVLENAFIIIERGHFKIDESILKKFPKYYLINIPKLSFINFISSSEARKFLTKENDINDIKKYIHPLTIDYIIKYNLYDFN
Consider B1, for which the results for the Km in data set [2] and in data set [3] were 19.9 ± 6.7 µM and 35.8 ± 5.1 µM, respectively.

These data come from paper PMC3991606, “Targeting NAD^+ Metabolism in the Human Malaria Parasite Plasmodium falciparum” (PLoS ONE, 2014).
